Laboratory results published in patent US20200339692A1 (JIANGSU HENGRUI MEDICINE, published 2020).
Residue numbers refer to the chain shown, from its start.

B1: H12L61 (antibody, human IgG1, kappa, V domains shown)
VH: QVQLVQSGAEVKKPGASVKVSCKASGYTFTSYWMHWVRQAPGQGLEWMGRITPSSGFAMYNEKFKNRVTMTRDTSTSTVYMELSSLRSEDTAVYYCARGGSSYDYFDYWGQGTTVTVSS
VL: DIVLTQSPASLAVSPGQRATITCRASESVSIHGTHLMHWYQQKPGQPPKLLIYAASNLESGVPARFSGSGSGTDFTLTINPVEAEDTANYYCQQSFEDPLTFGQGTKLEIKR
notes: also called 24D5 H12 and 24D5 L61
B2: H18L61 (antibody, human IgG1, kappa, V domains shown)
VH: B1 VH with T52S, F57M, M59V
VL: B1 VL
notes: also called 24D5 H18 and 24D5 L61
B3: H19L61 (antibody, human IgG1, kappa, V domains shown)
VH: B1 VH with T52S, S54G, S55G, A58T, M59L
VL: B1 VL
notes: also called 24D5 H19 and 24D5 L61
B4: H16L61 (antibody, human IgG1, kappa)
heavy: not shown
light: DIVLTQSPASLAVSPGQRATITCRASESVSIHGTHLMHWYQQKPGQPPKLLIYAASNLESGVPARFSGSGSGTDFTLTINPVEAEDTANYYCQQSFEDPLTFGQGTKLEIKRTVAAPSVFIFPPSDEQLKSGTASVVCLLNNFYPREAKVQWKVDNALQSGNSQESVTEQDSKDSTYSLSSTLTLSKADYEKHKVYACEVTHQGLSSPVTKSFNRGEC
notes: also called 24D5 H16 and 24D5 L61
B5: H15L61 (antibody, human IgG1, kappa, V domains shown)
VH: B1 VH with S25N, S31D, Y32K, H35M
VL: B1 VL
notes: also called 24D5 H15 and 24D5 L61
B6: H13L61 (antibody, human IgG1, kappa)
heavy: not shown
light: B4 light
notes: also called 24D5 H13 and 24D5 L61
B7: H12L64 (antibody, human IgG1, kappa, V domains shown)
VH: B1 VH
VL: B1 VL with A54V, N57Y, L58A, E59A
notes: from the HRP00052 mutant library; also called 24D5 H12 and 24D5 L64
B8: H17L61 (antibody, human IgG1, kappa, V domains shown)
VH: B1 VH with T52G, S54N, S55L, F57W, F64Y, R87G
VL: B1 VL
notes: also called 24D5 H17 and 24D5 L61
B9: H14L61 (antibody, human IgG1, kappa, V domains shown)
VH: B1 VH with T52H, S55L, F57L, A58P, M59L
VL: B1 VL
notes: also called 24D5 H14 and 24D5 L61
B10: H6L11 (antibody, human IgG1, kappa, V domains shown)
VH: QVQLQESGPGLVKPSQTLSLTCTVSGGSISNDYWTWIRQHPGKGLEYIGFISRAGSTYNTPSLKGRVTISRDTSKNQFSLKLSSVTAADTAVYYCARSGGWLAPFDYWGRGTLVTVSS
VL: DIVMTQSPDSLAVSLGERATINCKSSQSLFYHSNQKHSLAWYQQKPGQPPKLLIYGASTRESGVPDRFSGSGSGTDFTLTISSLQAEDVAVYYCQQYYGYPYTFGGGTKVEIKR
notes: also called 9-2 H6 and 9-2 L11
B11: H5L11 (antibody, human IgG1, kappa, V domains shown)
VH: QVQLQESGPGLVKPSQTLSLTCTVSGGSISDGSAYWSWIRQHPGKGLEYIGFISRAGSTYNTPSLKGRVTISRDTSKNQFSLKLSSVTAADTAVYYCARSGGWLAPFDYWGRGTLVTVSS
VL: B10 VL
notes: from the HRP00049 mutant library; also called 9-2 H5 and 9-2 L11
B12: H7L11 (antibody, human IgG1, kappa, V domains shown)
VH: B10 VH with F50M, R53V, N59H
VL: B10 VL
notes: also called 9-2 H7 and 9-2 L11
B13: H21L67 (antibody, human IgG1, kappa, V domains shown)
VH: B1 VH with S31D, Y32K, H35M
VL: B1 VL with A54V, L58V
notes: also called 24D5 H21 and 24D5 L67
B14: H21L66 (antibody, human IgG1, kappa, V domains shown)
VH: B1 VH with S31D, Y32K, H35M
VL: B1 VL with A54V, L58V, E59F
notes: also called 24D5 H21 and 24D5 L66
B15: H21L69 (antibody, human IgG1, kappa, V domains shown)
VH: B1 VH with S31D, Y32K, H35M
VL: B1 VL with A54V, L58V, E59Y
notes: also called 24D5 H21 and 24D5 L69
B16: HRP00052-IgG1 (antibody)
heavy: not shown
light: B4 light

target: T1, human PD-L1 (Cat. #10084-H08H, Sino Biological) (human, UniProt Q9NZQ7 19-239); test: SPR, Biacore X100, 1:1 Langmuir
T1 construct: Bought recombinant protein used in the Biacore test; also called hPDL1; hPD-L1
T1 sequence (Q9NZQ7 19-239 limits assumed): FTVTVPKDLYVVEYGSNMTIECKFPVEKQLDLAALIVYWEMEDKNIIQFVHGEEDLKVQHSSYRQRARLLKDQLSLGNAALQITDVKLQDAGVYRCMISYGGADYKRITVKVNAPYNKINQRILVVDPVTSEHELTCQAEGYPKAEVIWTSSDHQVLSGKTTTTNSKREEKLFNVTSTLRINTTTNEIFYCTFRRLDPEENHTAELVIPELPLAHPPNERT
Procedure: (§1) According to the method in the manual of human anti-capture kit (Cat. A BR-1008-39, GE), the human anti-capture antibody was covalently coupled to biosensor chip CM5 (Cat. #BR-1000-12, GE) so that a certain amount of human PD-L1 (Cat. #10084-H08H, Sino Biological) monkey PD-L1 (Cat. #90251-C08H, Sino Biological), mouse PD-L1 (Cat. #50010-M08H, Sino Biological) were affinity captured. The affinity of PD-L1 antibody reacting with PD-L1 was measured with Biacore X100, GE instrument.

Row | Kd [nM] | koff [s⁻¹] | kon [M⁻¹ s⁻¹] | Binder
1 | 0.0326 | 7.1e-05 | 2.18e+06 | B1
2 | 0.033 | 5.63e-05 | 1.71e+06 | B2
3 | 0.0327 | 7.65e-05 | 2.34e+06 | B3
4 | 0.0254 | 6.43e-05 | 2.53e+06 | B4
5 | 0.0325 | 7.88e-05 | 2.43e+06 | B5
6 | 0.0261 | 6.66e-05 | 2.55e+06 | B6
7 | 0.0326 | 7.1e-05 | 2.18e+06 | B7
8 | 0.0393 | 9.53e-05 | 2.43e+06 | B8
9 | 0.038 | 9.1e-05 | 2.4e+06 | B9
10 | 0.227 | 0.000113 | 495000 | B10
11 | 0.203 | 0.000124 | 611000 | B11
12 | 1.39 | 0.000389 | 281000 | B12

target: T2, monkey PD-L1 (Cat. #90251-C08H, Sino Biological) (monkey (cyno), UniProt G7PSE7 19-239); test: SPR, Biacore X100, 1:1 Langmuir
T2 construct: Bought recombinant protein used in the Biacore test; also called Monkey (cyno) PD-L1; Cyno PDL1
T2 sequence (G7PSE7 entry or part of it C08H C08H): as the sequence (Q9NZQ7 19-239 limits assumed) above, with A33T, A34S, S62N, R68Q, Q82R, F173L, T185A, T192I, H215L counted along it
Procedure: as §1

Row | Kd [nM] | koff [s⁻¹] | kon [M⁻¹ s⁻¹] | Binder
13 | 0.048 | 7.68e-05 | 1.6e+06 | B2
14 | 0.0458 | 8.38e-05 | 1.83e+06 | B7
15 | 0.318 | 0.000151 | 474000 | B10
16 | 0.211 | 0.000121 | 572000 | B11

target: T3, mouse PD-L1 (Cat. #50010-M08H, Sino Biological) (mouse, UniProt Q9EP73 19-238); test: SPR, Biacore X100, 1:1 Langmuir
T3 construct: Bought recombinant protein used in the Biacore test
T3 sequence (Q9EP73 19-238 limits assumed, stated change not applied): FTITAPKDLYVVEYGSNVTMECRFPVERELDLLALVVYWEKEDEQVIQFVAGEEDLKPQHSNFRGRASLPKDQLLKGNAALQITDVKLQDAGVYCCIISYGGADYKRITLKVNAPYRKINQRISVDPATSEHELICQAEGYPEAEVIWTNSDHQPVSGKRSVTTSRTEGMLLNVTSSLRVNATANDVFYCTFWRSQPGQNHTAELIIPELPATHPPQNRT
Procedure: as §1

Row | Kd [nM] | koff [s⁻¹] | kon [M⁻¹ s⁻¹] | Binder
17 | 18.1 | 0.0119 | 655000 | B10
18 | 69.6 | 0.0564 | 811000 | B11
19 | 135 | 0.0182 | 135000 | B12

target: T1, human PD-L1 (Cat. #10084-H08H, Sino …); test: SPR, Biacore X100, 1:1 Langmuir; remark: another data set of the same source
Procedure: as §1

Row | Kd [nM] | koff [s⁻¹] | kon [M⁻¹ s⁻¹] | Binder
20 | 0.0522 | 0.00012 | 2.3e+06 | B13
21 | 0.0533 | 0.000104 | 1.95e+06 | B14
22 | 0.0563 | 0.000129 | 2.29e+06 | B15

target: T2, monkey PD-L1 (Cat. #90251-C08H, Sino …); test: SPR, Biacore X100, 1:1 Langmuir; remark: another data set of the same source
Procedure: as §1

Row | Kd [nM] | koff [s⁻¹] | kon [M⁻¹ s⁻¹] | Binder
23 | 0.0528 | 0.000124 | 2.35e+06 | B13
24 | 0.0563 | 0.000122 | 2.17e+06 | B14
25 | 0.0526 | 0.000119 | 2.27e+06 | B15

target: mouse PD-L1 (ligand blocking test) (mouse, UniProt Q9EP73 19-238, limits assumed); test: blocking of mouse PD-L1/PD-1 binding, PD-L1 5 ug/ml; competitor PD-1
Sequence (Q9EP73 19-238 limits assumed): as the sequence (Q9EP73 19-238 limits assumed, stated change not applied) above

Row | IC50 [ng/mL] | Binder
26 | 1.23 | B10
27 | 0.927 | B11

target: T4, human PD-L1 (ligand blocking test) (human, UniProt Q9NZQ7 19-238, limits assumed); test: blocking of human PD-L1/PD-1 binding, PD-L1 10 ug/ml; competitor PD-1
T4 sequence (Q9NZQ7 19-238 limits assumed): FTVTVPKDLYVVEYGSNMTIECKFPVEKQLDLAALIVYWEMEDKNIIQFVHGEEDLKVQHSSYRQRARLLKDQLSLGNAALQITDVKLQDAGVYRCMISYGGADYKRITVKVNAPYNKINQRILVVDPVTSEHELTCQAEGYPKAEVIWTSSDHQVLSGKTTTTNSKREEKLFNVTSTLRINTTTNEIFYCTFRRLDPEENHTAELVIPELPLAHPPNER

Row | IC50 [ng/mL] | Binder
28 | 0.228 | B2
29 | 0.215 | B7
30 | 0.338 | B16
31 | 0.29 | B10
32 | 0.168 | B11

target: T4, human PD-L1 (ligand blocking test); test: blocking of B7-1 binding to human PD-L1, PD-L1 1 ug/ml; competitor B7-1

Row | IC50 [ng/mL] | Binder
33 | 1.38 | B2
34 | 0.826 | B7
35 | 1.65 | B16
36 | 1.69 | B10
37 | 1.45 | B11
